Data published in the Human Domainome abundance scans (Beltran et al. 2025).
± gives the uncertainty stated by the source.

B1: Chromodomain-helicase-DNA-binding protein 5, residues 411 to 463; numbered along this chain, Q8TDI0 (parent)
chain: EEDDHMEFCRVCKDGGELLCCDACPSSYHLHCLNPPLPEIPNGEWLCPRCTCP
B2: Gamma-crystallin S, residues 96 to 176; numbered along this chain, P22914 (parent)
chain: IQIFEKGDFSGQMYETTEDCPSIMEQFHMREIHSCKVLEGVWIFYELPNYRGRQYLLDKKEYRKPIDWGAASPAVQSFRRI

Variants of: B1
Assay: abundance fitness (aPCA) (normalised: wild type 0, dead -1); higher = more abundant; growth selection in yeast, the domain comes from the species named
Conditions: Homo sapiens

L46E and L46F are within error of each other in abundance fitness: -0.025 ± 0.054 for the first, 0.101 ± 0.091 for the second.

Compared with L46G, L46H is higher in abundance fitness: -0.502 ± 0.081 for the first, -0.152 ± 0.11 for the second.

L46I and L46K are within error of each other in abundance fitness: 0.116 ± 0.093 for the first, 0.079 ± 0.089 for the second.

First: L46M
Second: L46N
The abundance fitness of the first is lower: -0.188 ± 0.082 for the first, 0.294 ± 0.12 for the second.

Going from L46P to L46Q, the abundance fitness rises from -0.559 ± 0.12 to -0.063 ± 0.12.

L46R and L46S are within error of each other in abundance fitness: -0.034 ± 0.06 for the first, 0.061 ± 0.059 for the second.

L46T and L46V are within error of each other in abundance fitness: -0.102 ± 0.058 for the first, -0.017 ± 0.054 for the second.

L46W and L46Y are within error of each other in abundance fitness: -0.155 ± 0.083 for the first, -0.115 ± 0.093 for the second.

C47A and C47D are within error of each other in abundance fitness: -0.542 ± 0.077 for the first, -0.678 ± 0.15 for the second.

Going from C47E to C47F, the abundance fitness rises from -0.853 ± 0.14 to -0.318 ± 0.12.

Compared with C47G, C47H is higher in abundance fitness: -0.533 ± 0.074 for the first, -0.235 ± 0.2 for the second.

Going from C47I to C47K, the abundance fitness falls from -0.009 ± 0.15 to -0.848 ± 0.21.

C47L and C47M are within error of each other in abundance fitness: -0.716 ± 0.052 for the first, -0.906 ± 0.17 for the second.

Compared with C47N, C47P is lower in abundance fitness: -0.285 ± 0.17 for the first, -0.899 ± 0.085 for the second.

Going from C47Q to C47R, the abundance fitness falls from -0.192 ± 0.11 to -0.737 ± 0.058.

C47S and C47T are within error of each other in abundance fitness: -0.653 ± 0.048 for the first, -0.551 ± 0.12 for the second.

C47V and C47W are within error of each other in abundance fitness: -0.808 ± 0.084 for the first, -0.914 ± 0.067 for the second.

Compared with C47Y, P48A is higher in abundance fitness: -0.929 ± 0.11 for the first, -0.27 ± 0.085 for the second.

P48C and P48D are within error of each other in abundance fitness: 0.023 ± 0.12 for the first, 0.212 ± 0.11 for the second.

P48E and P48F are within error of each other in abundance fitness: 0.177 ± 0.11 for the first, 0.31 ± 0.12 for the second.

P48H and P48I are within error of each other in abundance fitness: 0.014 ± 0.13 for the first, -0.312 ± 0.24 for the second.

P48K and P48L are within error of each other in abundance fitness: -0.419 ± 0.14 for the first, -0.564 ± 0.1 for the second.

Compared with P48M, P48N is higher in abundance fitness: -0.389 ± 0.09 for the first, -0.106 ± 0.12 for the second.

P48Q and P48S are within error of each other in abundance fitness: -0.09 ± 0.079 for the first, -0.025 ± 0.071 for the second.

Compared with P48T, P48V is lower in abundance fitness: -0.004 ± 0.092 for the first, -0.24 ± 0.075 for the second.

Going from P48W to P48Y, the abundance fitness rises from -0.412 ± 0.12 to -0.149 ± 0.059.

R49A and R49C are within error of each other in abundance fitness: -0.017 ± 0.056 for the first, 0.021 ± 0.057 for the second.

R49D and R49E are within error of each other in abundance fitness: 0.101 ± 0.049 for the first, 0.148 ± 0.054 for the second.

First: R49F
Second: R49H
The abundance fitness of the first is higher: 0.011 ± 0.1 for the first, -0.223 ± 0.11 for the second.

Compared with R49I, R49L is higher in abundance fitness: -0.305 ± 0.11 for the first, -0.094 ± 0.048 for the second.

R49M and R49N are within error of each other in abundance fitness: 0.017 ± 0.067 for the first, 0.013 ± 0.1 for the second.

Compared with R49P, R49Q is higher in abundance fitness: -0.106 ± 0.063 for the first, 0.156 ± 0.069 for the second.

R49S and R49T are within error of each other in abundance fitness: 0.04 ± 0.055 for the first, 0.112 ± 0.069 for the second.

R49V and R49W are within error of each other in abundance fitness: 0.033 ± 0.044 for the first, -0.073 ± 0.064 for the second.

Compared with R49Y, C50A is lower in abundance fitness: -0.088 ± 0.1 for the first, -0.628 ± 0.055 for the second.

Going from C50D to C50F, the abundance fitness falls from -0.4 ± 0.062 to -0.756 ± 0.093.

First: C50G
Second: C50H
The abundance fitness of the first is lower: -0.613 ± 0.05 for the first, 0.008 ± 0.058 for the second.

First: C50I
Second: C50K
The abundance fitness of the first is lower: -0.751 ± 0.059 for the first, -0.598 ± 0.065 for the second.

Going from C50M to C50N, the abundance fitness rises from -0.77 ± 0.065 to -0.591 ± 0.11.

Going from C50P to C50Q, the abundance fitness falls from -0.517 ± 0.052 to -0.619 ± 0.049.

C50R and C50S are within error of each other in abundance fitness: -0.686 ± 0.049 for the first, -0.702 ± 0.053 for the second.

C50T and C50V are within error of each other in abundance fitness: -0.74 ± 0.064 for the first, -0.675 ± 0.057 for the second.

C50W and C50Y are within error of each other in abundance fitness: -0.477 ± 0.066 for the first, -0.568 ± 0.11 for the second.

Going from T51A to T51C, the abundance fitness rises from -0.061 ± 0.046 to 0.086 ± 0.083.

First: T51D
Second: T51E
The abundance fitness of the first is higher: 0.202 ± 0.099 for the first, -0.027 ± 0.063 for the second.

T51F and T51G are within error of each other in abundance fitness: -0.142 ± 0.12 for the first, -0.052 ± 0.063 for the second.

First: T51H
Second: T51K
The abundance fitness of the first is lower: -0.228 ± 0.13 for the first, 0.049 ± 0.089 for the second.

Compared with T51M, T51N is higher in abundance fitness: -0.296 ± 0.095 for the first, 0.018 ± 0.051 for the second.

Compared with T51P, T51Q is higher in abundance fitness: -0.078 ± 0.089 for the first, 0.116 ± 0.092 for the second.

T51R and T51S are within error of each other in abundance fitness: -0.035 ± 0.053 for the first, -0.089 ± 0.046 for the second.

Compared with T51V, T51W is lower in abundance fitness: -0.084 ± 0.064 for the first, -0.346 ± 0.075 for the second.

Going from T51Y to C52A, the abundance fitness rises from -0.161 ± 0.097 to 0.067 ± 0.054.

C52D and C52E are within error of each other in abundance fitness: 0.262 ± 0.085 for the first, 0.126 ± 0.08 for the second.

Going from C52F to C52G, the abundance fitness rises from -0.141 ± 0.098 to 0.029 ± 0.055.

First: C52H
Second: C52I
The abundance fitness of the first is higher: 0.189 ± 0.1 for the first, -0.239 ± 0.099 for the second.

First: C52K
Second: C52L
The abundance fitness of the first is lower: -0.198 ± 0.14 for the first, 0.018 ± 0.049 for the second.

First: C52M
Second: C52N
The abundance fitness of the first is lower: 0.021 ± 0.053 for the first, 0.222 ± 0.11 for the second.

Going from C52P to C52Q, the abundance fitness falls from 0.11 ± 0.053 to -0.121 ± 0.11.

First: C52R
Second: C52S
The abundance fitness of the first is lower: -0.026 ± 0.045 for the first, 0.138 ± 0.061 for the second.

Going from C52V to C52Y, the abundance fitness falls from 0.062 ± 0.055 to -0.295 ± 0.092.

P53A and P53G are within error of each other in abundance fitness: -0.091 ± 0.14 for the first, -0.097 ± 0.06 for the second.

First: P53L
Second: P53R
The abundance fitness of the first is higher: 0.13 ± 0.15 for the first, -0.669 ± 0.29 for the second.

P53S and P53T are within error of each other in abundance fitness: -0.153 ± 0.13 for the first, -0.083 ± 0.16 for the second.

Variants of: B2
Assay: as above
Conditions: Homo sapiens

First: AQIFEKGDFSGQMYETTEDCPSIMEQFHMREIHSCKVLEGVWIFYELPNYRGRQYLLDKKEYRKPIDWGAASPAVQSFRRI [I1A]
Second: CQIFEKGDFSGQMYETTEDCPSIMEQFHMREIHSCKVLEGVWIFYELPNYRGRQYLLDKKEYRKPIDWGAASPAVQSFRRI [I1C]
The abundance fitness of the first is lower: -0.239 ± 0.051 for the first, 0.104 ± 0.11 for the second.

First: FQIFEKGDFSGQMYETTEDCPSIMEQFHMREIHSCKVLEGVWIFYELPNYRGRQYLLDKKEYRKPIDWGAASPAVQSFRRI [I1F]
Second: GQIFEKGDFSGQMYETTEDCPSIMEQFHMREIHSCKVLEGVWIFYELPNYRGRQYLLDKKEYRKPIDWGAASPAVQSFRRI [I1G]
The abundance fitness of the first is higher: 0.011 ± 0.091 for the first, -1.18 ± 0.16 for the second.

HQIFEKGDFSGQMYETTEDCPSIMEQFHMREIHSCKVLEGVWIFYELPNYRGRQYLLDKKEYRKPIDWGAASPAVQSFRRI [I1H] and KQIFEKGDFSGQMYETTEDCPSIMEQFHMREIHSCKVLEGVWIFYELPNYRGRQYLLDKKEYRKPIDWGAASPAVQSFRRI [I1K] are within error of each other in abundance fitness: 0.005 ± 0.46 for the first, -0.732 ± 0.35 for the second.

First: LQIFEKGDFSGQMYETTEDCPSIMEQFHMREIHSCKVLEGVWIFYELPNYRGRQYLLDKKEYRKPIDWGAASPAVQSFRRI [I1L]
Second: NQIFEKGDFSGQMYETTEDCPSIMEQFHMREIHSCKVLEGVWIFYELPNYRGRQYLLDKKEYRKPIDWGAASPAVQSFRRI [I1N]
The abundance fitness of the first is higher: -0.154 ± 0.084 for the first, -0.968 ± 0.37 for the second.

RQIFEKGDFSGQMYETTEDCPSIMEQFHMREIHSCKVLEGVWIFYELPNYRGRQYLLDKKEYRKPIDWGAASPAVQSFRRI [I1R] and SQIFEKGDFSGQMYETTEDCPSIMEQFHMREIHSCKVLEGVWIFYELPNYRGRQYLLDKKEYRKPIDWGAASPAVQSFRRI [I1S] are within error of each other in abundance fitness: -1.07 ± 0.23 for the first, -0.973 ± 0.078 for the second.

First: TQIFEKGDFSGQMYETTEDCPSIMEQFHMREIHSCKVLEGVWIFYELPNYRGRQYLLDKKEYRKPIDWGAASPAVQSFRRI [I1T]
Second: VQIFEKGDFSGQMYETTEDCPSIMEQFHMREIHSCKVLEGVWIFYELPNYRGRQYLLDKKEYRKPIDWGAASPAVQSFRRI [I1V]
The abundance fitness of the first is lower: -0.191 ± 0.13 for the first, 0.05 ± 0.073 for the second.

Going from WQIFEKGDFSGQMYETTEDCPSIMEQFHMREIHSCKVLEGVWIFYELPNYRGRQYLLDKKEYRKPIDWGAASPAVQSFRRI [I1W] to IAIFEKGDFSGQMYETTEDCPSIMEQFHMREIHSCKVLEGVWIFYELPNYRGRQYLLDKKEYRKPIDWGAASPAVQSFRRI [Q2A], the abundance fitness rises from -1.16 ± 0.44 to -0.075 ± 0.042.
